The subject of test [1] is human primary CD4 T cells. Nature of the test: Anti-Her2 synNotch driving pro-apoptotic BCL-2 family protein X, T cell survival with antigen-expressing target cells. Type of test: cell-based. The conditions noted are these: for induced apoptosis of T cells: in the presence of antigen-expressing target cells. As to the method: For example, a circuit was designed, as schematically depicted in FIG. 27, with an anti-Her2 synNotch driving expression of a pro-apoptotic BCL-2 family protein “X”, where X stands for the various pro-apoptotic BCL-2 family members were tested in the depicted circuit. As shown, upon the anti-Her2 scFv portion of the synNotch receptor binding Her2 expressed by a target cell, the transcription factor (TF) portion of the synNotch, containing Gal4-VP64, is released and inducing expression of the pro-apoptotic BCL-2 family protein “X”. The level of induced apoptosis in the presence of cells expressing the target antigen, as compared to control cells not expressing the target antigen, was then assessed.
Results of testing BID, tBID, PUMA, BMF, HRK and BIK as pro-apoptotic BCL-2 family protein “X” in this system are shown in FIG. 28, along with a negative control employing BFP in place of the pro-apoptotic BCL-2 family protein “X”.
Thus, the therapeutic cells encoding the BID circuit were able to survive BID induction.

A further test deals with primary human T cells. The experiment in a line: Constitutive overexpression of pro-apoptotic BCL-2 family proteins in T cells, FACS at culture day 12. Type of test: cell-based. Conditions: constitutive expression. As to the method:
The abilities of several pro-apoptotic proteins (e.g., BIM, truncated Bid (tBID), and BAD) to induce T cell apoptosis when synthetically overexpressed from a constitutive promoter were tested. The tested T cells were also engineered to constitutively overexpress anti-apoptotic BCL-2.
Without being bound by theory, these effects were likely due to leaky expression of BIM, the high effectiveness of BIM in inducing apoptosis, or a combination thereof.

B1: BIK: pro-apoptotic BIK protein, human UniProt Q13323, SEQ ID NO: 104 (protein)
chain: MSEVRPLSRDILMETLLYEQLLEPPTMEVLGMTDSEEDLDPMEDFDSLECMEGSDALALRLACIGDEMDVSLRAPRLAQLSEVAMHSLGLAFIYDQTEDIRDVLRSFMDGFTTLKENIMRFWRSPNPGSWVSCEQVLLALLLLLALLLPLLSGGLHLLLK
Turning to B1, the “relative level of induced therapeutic cell killing” value in test [1] (comparison among tBID, PUMA, BMF, HRK and BIK) is on record as “lower level of induced therapeutic cell killing”. In addition, the “induced apoptosis of T cells” value in test [1] is recorded as “induce apoptosis of human primary CD4 T cells”.

B2: BAD: pro-apoptotic BH3-only BCL-2 family protein, UniProt Q92934, heterologously expressed in T cells (protein, UniProt Q92934 1-168, looked up)
Bcl2-associated agonist of …: MFQIPEFEPSEQEDSSSAERGLGPSPAGDGPSGSGKHHRQAPGLLWDASHQQEQPTSSSHHGGAGAVEIRSRHSSYPAGTEDDEGMGEEPSPFRGRSRSAPPNLWAAQRYGRELRRMSDEFVDSFKKGLPRPKSAGTATQMRQSSSWTRVFQSWWDRNLGRGSSAPSQ
Turning to B2, in the test with primary human T cells (in the absence of overexpressed BCL-2), the “ability to drive T cell death” value is recorded as “insufficient to drive T cell death”. Further, the “ability to induce T cell apoptosis / drive T cell death” value in the test on primary human T cells (with constitutive overexpression of BCL-2, culture day 12) was “insufficient to drive T cell death”.

B3: PUMA: pro-apoptotic PUMA protein, human UniProt Q9BXH1 (protein, UniProt Q9BXH1 1-193, looked up)
Bcl-2-binding component 3, …: MARARQEGSSPEPVEGLARDGPRPFPLGRLVPSAVSCGLCEPGLAAAPAAPTLLPAAYLCAPTAPPAVTAALGGSRWPGGPRSRPRGPRPDGPQPSLSLAEQHLESPVPSAPGALAGGPTQAAPGVRGEEEQWAREIGAQLRRMADDLNAQYERRRQEEQQRHRPSPWRVLYNLIMGLLPLPRGHRAPEMEPN
With B3, the “induced apoptosis of T cells” value in test [1] is listed as “induce apoptosis of human primary CD4 T cells”.

For the origin of these results see patent publication US20220204575A1, “MODULATING SURVIVAL OF THERAPEUTIC CELLS AND METHODS, CELLS AND NUCLEIC ACIDS RELATED THERETO” (The Regents of the University of California, priority 2019, published 2022).
